{
  "source": "patent US10215752B2",
  "about": "“Nanotube array for optical detection of protein-protein interactions” (MASSACHUSETTS INSTITUTE OF TECHNOLOGY, priority 2010, dated 2019)",
  "key": {"[1]": {"target": "T1, PA-IIL lectin (Pseudomonas aeruginosa, UniProt Q9HYN5)", "T1 construct": "made in house; host or cells: E. coli BL21(DE3) Star", "T1 sequence (Q9HYN5 entry or part of it)": "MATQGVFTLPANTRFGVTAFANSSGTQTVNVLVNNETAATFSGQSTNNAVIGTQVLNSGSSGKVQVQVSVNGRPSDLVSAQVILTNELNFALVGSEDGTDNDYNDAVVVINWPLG", "assay_type": "binding", "conditions": "for sensor response / cross response to PA-IIL lectin: controls and selectivity, FIG. 30a, FIG. 31", "experimental": "(§1) To increase the reproducibility of these sensors, an automated printing method of the chitosan gel was introduced (FIG. 35). Patterned glass microscope slides (Tekdon™) were inserted in a microarray printer (Digilab MicroSys System™), where the robotic head was programmed to dispense alternating layers of chitosan-SWNT (0.25 wt % chitosan (CHI), 1 vol % acetic acid, 30 ug/ml suspended (6,5) SWNT) and crosslinker (10 vol % glutaraldehyde). The suspended SWNT was made from Southwest Nanotechnologies, Inc. CoMoCAT® nanotubes sonicated in 0.25 wt % chitosan (CHI) and 1 vol % acetic acid for 45 minutes at 40% amplitude with a probe-tip sonicator (Cole Parmer, Model CV18). […] The chips were printed in a humidified enclosure (85% RH) at 25° C. and allowed to cross-link overnight in the same environment. Nickel-NTA groups were introduced as previously reported^8; see FIG. 3. Briefly, the chips were washed with a dilute basic buffer (0.01 M NaOH) and water three times. Carboxylic acid groups were introduced to the chitosan wrapped SWNT by bathing the chips in succinic anhydride (0.1 M) overnight. The chips were then washed three times with water and the carboxylic acid groups were activated via N-(3-dimethylaminopropyl)-N′-ethylcarbo diimide hydrochloride (EDC-0.1M) and N-hydroxysuccinimide (NHS-0.1M). The chips were bathed in this solution for 2 hours at 25° C. and examined for the expected formation of bubbles. The chips were again washed and allowed to bathe in a solution of a linked tricarboxylic acid group (Nα,Nα-bis(carboxymethyl)-L-lysine a.k.a. NTA-33 mM) overnight. The chips were washed in water again and stored in a 100 mM solution of NiSO4 to allow maximum binding of nickel to the NTA chelating groups.\n(§2) A custom-made near infrared inverted microscope (Zeiss D.1 Observer™) setup allowed us to probe the fluorescent emissions of our SWNT sensors (FIG. 26a). The chips were secured on the microscope stage and the objective (50×/0.7 Zeiss™) was pushed in contact with a blank portion of the glass slide (no SWNT-CHI) to obtain a 5 second background spectrum, which was subtracted from the response spectra. The objective was then moved under a SWNT-CHI gel spot and again pushed in contact with the glass slide. […] The SWNT were excited by a 785 nm laser (B&W Tek™—495 mW) and the emission was sent to a spectrometer (Princeton Instruments Acton SpectraPro 2500i Spectrograph™) and accompanying nIR camera (Intervac MOSIR Camera 350™) The spectra were collected via WinSpec software (Princeton Instruments™) and analyzed with custom Matlab (Mathworks™) code. To maximize signal stability, the spectrometer was cooled with liquid nitrogen two hours prior to experimentation and the laser was allowed to reach peak stability for two hours. […] Data was gathered in the form of emission intensity spectra (950-1250 nm) integrated for 5 seconds.\n(§3) A typical experiment was run for approximately 1000 frames (at 5 seconds each) and included a few addition and washing steps to detect lectin-glycan binding (FIG. 26b). First NiSO4 was again added to ensure that the SWNT sensors were responsive and that the NTA chelating groups were fully loaded with Ni^++ groups. The nickel was then washed away with PBS three times, leaving 20 ul of PBS on the sensors. The His-tag lectin was then added to the sensor (20 μl at 2 mg/ml) and allowed to bind for 300 seconds."}, "[2]": {"target": "T2, GafD lectin (Escherichia coli, UniProt Q47341)", "T2 sequence (Q47341 23-343)": "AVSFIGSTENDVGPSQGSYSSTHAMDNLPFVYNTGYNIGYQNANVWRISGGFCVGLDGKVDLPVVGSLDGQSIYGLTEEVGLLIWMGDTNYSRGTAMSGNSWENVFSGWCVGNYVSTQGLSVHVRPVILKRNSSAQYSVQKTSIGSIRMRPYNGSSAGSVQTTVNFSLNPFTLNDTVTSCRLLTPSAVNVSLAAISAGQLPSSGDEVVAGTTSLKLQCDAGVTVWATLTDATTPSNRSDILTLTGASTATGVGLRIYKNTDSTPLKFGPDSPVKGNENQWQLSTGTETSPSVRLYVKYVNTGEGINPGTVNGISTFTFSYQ", "conditions": "10 μM probe, sum of noise-reduced traces from 150 individual SWNT sensors", "protocol": "A second custom microscope was used to collect emission intensities of single SWNT sensors (FIG. 27a). The SWNT-CHI gel was diluted to 3 μg/ml of SWNT and spin-coated (3000 rpm for 30 s on Make of SpinCoater™) on glass-bottom petridishes (MarTec Corp™). The petri-dishes were then placed on the microscope platform (Zeiss D.1 Observer) and the oil-immersed objective (Zeiss™ 100×/1.46) was focused on the SWNT sensors on the glass surface. The SWNT were excited by a 660 nm laser (Crystal Laser—100 mW) and the emission intensities were recorded by a nitrogen-cooled InGaAs array (Princeton Instruments™). […] These Tiff images were then analyzed using custom Matlab code (Mathworks™) to construct a intensity versus time trace for each SWNT sensor (FIG. 27c).\nThe use of single nanotube spectroscopy allowed this question to be addressed (FIG. 32). […] Using software developed in house, the movies of SWNT fluorescence were analyzed and intensity time traces were extracted for each of the individual SWNT sensors (FIG. 37).^24b An efficient algorithm for fitting large quantities of these time traces to embedded fluorescent levels was used.^35 Briefly, the algorithm used an optimized form of an established noise-reduction algorithm for biological experiments^36 to clean the traces (FIG. 37c). It then evaluated all-points histograms of each trace to determine the unique fluorescent states of each trace. […]"}, "[3]": {"target": "T2, GafD lectin", "conditions": "probe 1 mg/ml with GafD 3 mg/ml in solution", "protocol": "The interaction between lection and glycan was analyzed by 15% native PAGE according to the method of Schagger and von Jagow with minor modifications. […] Briefly, blectrophoresis was performed using Mini Protean Electrophoresis system (Bio-Rad, USA™) for molecular interaction under nondenaturing conditions. Nonreduced protein/glycan samples in the sample buffer (20% glycerol, 200 mM Tris-HCl, pH 6.8, 0.05% bromophenol blue) were applied to the gel (gel buffer: 25 mM Tris-HCl, 200 mM glycine). Electrophoresis was performed at 80 V for 120 min. After electrophoresis, the protein bands were visualized by staining with Coomassie Brilliant Blue R-250."}, "[4]": {"target": "T2, GafD lectin", "assay_type": "binding", "set-up": "made in house; host or cells: E. coli BL21(DE3) Star", "conditions": "for sensor response / cross response to GafD lectin: controls and selectivity, FIG. 30a, FIG. 31", "experimental": "as §1, §2, §3"}, "[5]": {"system": "SWNT-Chitosan lectin sensors", "experiment": "Ensemble chitosan-SWNT sensor measurements, controls and overall response (lectin not stated)", "assay_type": "binding", "conditions": "FIG. 30a", "experimental": "To increase the reproducibility of these sensors, an automated printing method of the chitosan gel was introduced (FIG. 35). Patterned glass microscope slides (Tekdon™) were inserted in a microarray printer (Digilab MicroSys System™), where the robotic head was programmed to dispense alternating layers of chitosan-SWNT (0.25 wt % chitosan (CHI), 1 vol % acetic acid, 30 ug/ml suspended (6,5) SWNT) and crosslinker (10 vol % glutaraldehyde). The suspended SWNT was made from Southwest Nanotechnologies, Inc. CoMoCAT® nanotubes sonicated in 0.25 wt % chitosan (CHI) and 1 vol % acetic acid for 45 minutes at 40% amplitude with a probe-tip sonicator (Cole Parmer, Model CV18). For each sensor spot ten alternating layers of SWNT-CHI and cross-linker were printed at […] per layer, resulting in a highly-uniform gel of 1 ul SWNT-CHI material. […]\nA custom-made near infrared inverted microscope (Zeiss D.1 Observer™) setup allowed us to probe the fluorescent emissions of our SWNT sensors (FIG. 26a). […] The SWNT were excited by a 785 nm laser (B&W Tek™—495 mW) and the emission was sent to a spectrometer (Princeton Instruments Acton SpectraPro 2500i Spectrograph™) and accompanying nIR camera (Intervac MOSIR Camera 350™) The spectra were collected via WinSpec software (Princeton Instruments™) and analyzed with custom Matlab (Mathworks™) code. […]"}, "[6]": {"target": "CDK4 (Homo sapiens, UniProt P11802)", "sequence (P11802 with tags, fused parts or gaps)": "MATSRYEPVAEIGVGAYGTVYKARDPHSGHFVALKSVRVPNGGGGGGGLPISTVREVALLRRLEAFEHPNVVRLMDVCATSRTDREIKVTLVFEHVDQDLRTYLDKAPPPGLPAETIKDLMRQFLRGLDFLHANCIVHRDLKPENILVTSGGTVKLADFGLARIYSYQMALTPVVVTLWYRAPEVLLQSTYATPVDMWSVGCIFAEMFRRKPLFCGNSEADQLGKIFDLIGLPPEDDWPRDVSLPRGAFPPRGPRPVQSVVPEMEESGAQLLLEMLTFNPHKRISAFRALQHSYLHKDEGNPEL", "experiment": "Protein-protein interaction on SWNT/CHI array, Förster distance calculation", "conditions": "distance change after analyte protein CDK4, Förster equation", "protocol": "Reaction mixtures for cell-free protein expression were added to each array wells. The fluorescent intensities of each SWNT/CHI well were taken to track the intensity changes. To initiate protein synthesis, 1 μl PCR-amplified DNAs were added to each well a humidified chamber at 37° C. for 2 hours. The arrays were washed three times for 10 min each with PBS buffer (pH 7.4, 100 mM) at RT and then PL spectra were taken. To analyze protein-protein interaction on SWNT/XHI array, anti-Histag antibody or cell-free expressed protein mixtures were added to each well and then PL spectra were taken to compare the intensity change.\nNear-infrared photoluminescence spectra were acquired using 785 nm excitation and an Acton SP-150 spectrograph coupled to a Princeton instruments OMA V InGaAs detector or with Kaiser Holospec f/1.8 Imaging Spectrograph (Kaiser Optical)."}, "[7]": {"conditions": "after Ni2+ and GafD lectin loading, FIG. 29a-b"}, "[8]": {"conditions": "from concentration dependent curves, analyte to GafD"}, "[9]": {"conditions": "from concentration dependent curves, analyte to PA-IIL"}},
  "note": "Read-outs that look alike come from different tables or passages of the source.",
  "data": [
    {"compound": "GlcNAc-Strept: model glycoprotein probe: biotinylated GlcNAc glycan bound to streptavidin", "values": [
      {"measurement": "sensor response / cross response to PA-IIL lectin", "setting": "[1]", "value": "negligible binding"},
      {"measurement": "signal modulation (response)", "setting": "[2]", "value": "~3.5", "unit": "%"},
      {"measurement": "complex formation on native PAGE gel", "setting": "[3]", "value": "bound complex"},
      {"measurement": "time response (loading curve) upon analyte addition", "setting": "[4]; [7]", "value": "SPR-like loading curve was observed"},
      {"measurement": "sensor response / cross response to GafD lectin", "setting": "[4]", "value": "positive response"},
      {"measurement": "Kf", "setting": "[4]; [8]", "value": 0.0003, "unit": "µM/s"},
      {"measurement": "kr", "setting": "[4]; [8]", "value": 0.015, "unit": "s⁻¹"}
    ]},
    {"compound": "Fuc-Strept: model glycoprotein probe: biotinylated fucose glycan bound to streptavidin", "values": [
      {"measurement": "sensor response / cross response to PA-IIL lectin", "setting": "[1]", "value": "positive response"},
      {"measurement": "Kf", "setting": "[1]; [9]", "value": 0.0001, "unit": "µM/s"},
      {"measurement": "sensor response / cross response to GafD lectin", "setting": "[4]", "value": "small affinity"}
    ]},
    {"compound": "blank streptavidin: streptavidin (Sigma Aldrich SO677) without glycan", "values": [
      {"measurement": "sensor response of controls", "setting": "[5]", "value": "negligible response"},
      {"measurement": "time response (loading curve) upon analyte addition", "setting": "[4]; GafD lectin biotinylated, positive control, FIG. 29c", "value": "expected loading curve was observed"},
      {"measurement": "time response (loading curve) upon analyte addition", "setting": "[4]; [7]", "value": "No loading curve was observed"}
    ]},
    {"compound": "GlcNAcβ-SpNH-LC-LC-Biotin [GlcNAc-Biotin]", "values": [
      {"measurement": "time response (loading curve) upon analyte addition", "setting": "[4]; [7]", "value": "loading curve was observed"},
      {"measurement": "Kd", "setting": "[4]; [8]", "value": 19, "unit": "µM"},
      {"measurement": "Kf", "setting": "[4]; [8]", "value": 0.0002, "unit": "µM/s"},
      {"measurement": "kr", "setting": "[4]; [8]", "value": 0.0037, "unit": "s⁻¹"}
    ]},
    {"compound": "Fucα1-2Galβ1-4Glcβ-SpNH-LC-LC-Biotin [Fuc-Biotin]", "values": [
      {"measurement": "Kd", "setting": "[1]; [9]", "value": 106, "unit": "µM"},
      {"measurement": "Kf", "setting": "[1]; [9]", "value": "7e-05", "unit": "µM/s"},
      {"measurement": "kr", "setting": "[1]; [9]", "value": 0.0074, "unit": "s⁻¹"}
    ]},
    {"compound": "p16: human derived protein (ExPASy P42771), on-chip cell-free expressed with His-tag", "values": [
      {"measurement": "Δd2", "setting": "[6]", "value": 0.05174}
    ]},
    {"compound": "O=C(O)CCCC[C@@H]1SC[C@@H]2NC(=O)N[C@@H]21", "note": "[biotin]", "values": [
      {"measurement": "sensor response of controls", "setting": "[5]", "value": "negligible response"}
    ]}
  ]
}
